Experimental data reported in paper doi:10.1101/2023.02.05.527200 (bioRxiv, 2023).
Like-named read-outs stand apart in the source and are kept apart here.

How the values were obtained:
[1] = target: T1, V5 peptide (Parainfluenza virus 5 (strain W3) …); assay: ITC
T1 chain: GKPIPNPLLGLDST

[2] = target: T1, V5 peptide; assay: ITC

B1: NbV5 (VHH)
VHH: EVQLQASGGGFVQPGGSLRLSCAASGTTSFGDTMGWFRQAPGKEREFVSAISRQGDKHYYADSVKGRFTISRDNSKNTVYLQMNSLRAEDTATYYCAEWMNTRREFITPYWGQGTQVTVSS
[1]
  Kd: 574 nM
[2]
  Kd: ~218 nM
